Biological target: pFAST_(99-114)–FRB–pFAST_(1-98)
Assay: split reporter

percent complementation at 5 μM HBR-2,5DM without rapamycin: < 6.5%
Substance: FKBP–pFAST_(115-125)

Source: PMC12307597
